B1: Pistol ribozyme (parent)
chain: GGGUCGUUGUUCCAUAAUCGCGUGGAUAUGGCACGCAAGUUUCUACCGGGCACCGUAAAUGUCCGACUGGAGCCGUUCGGGCGGCUAUAAACAGACCUCAGGCCCGAAGCGUGGCGGCACCUGCCGCCGGUGGUAAAAAAGAUCGGAAGAGCACACGUCU

Results on 84 variants are retold here after the RNAGym collection of RNA variant scans (doi:10.1021/acssynbio.7b00057).

This data set covers variants of B1. The data set can be described thus: aptazyme ON/OFF ratio, guanine; higher = stronger switching; co-transcriptional cleavage with and without guanine.
As to U7A U8G G9U U10G U11G C12A C13U, the “aptazyme ON/OFF ratio” value came out at 1.21.
Take U7C U10C U11C C12A: the “aptazyme ON/OFF ratio” value was 1.29.
Regarding U7G U8G U10G C13G, the “aptazyme ON/OFF ratio” value came out at 1.47.
U7A G9U U10A U11A C13G: the “aptazyme ON/OFF ratio” value was found to be 1.1.
For the variant U7A G9U U10A U11C C12A C13A, the “aptazyme ON/OFF ratio” value stood at 1.22.
In the case of U7G U8A G9A U10C U11G C12G C13U, the “aptazyme ON/OFF ratio” value came to 1.08.
On to U7C U8G G9C U10C C12U C13A, for which the “aptazyme ON/OFF ratio” value came to 1.05.
Regarding U8G U11C C12A C13G, the “aptazyme ON/OFF ratio” value amounted to 1.23.
In the case of U7A G9A U10G U11A C12U C13U it was 1.17.
In the case of U7G U8G G9U U10C U11G C12U it was 1.22.
For the variant U7C G9C U10C U11G C12G C13U, the “aptazyme ON/OFF ratio” value was found to be 1.12.
Turning to G9A U10A U11G C12G C13U, the “aptazyme ON/OFF ratio” value stood at 1.25.
In the case of U7A U8G G9A U10C U11G C12U C13G, the “aptazyme ON/OFF ratio” value was determined as 1.33.
The same measure for U8C G9A U10G U11G C12A C13U: 1.2; for U7C U8A G9U U10G C12G: 1.08.
Regarding U7A U8A U10C U11G C12U C13U, the “aptazyme ON/OFF ratio” value was determined as 1.3.
Take U7A U8A G9U U10A U11G C12A C13G: the “aptazyme ON/OFF ratio” value was 1.12.
As for U7C G9A U10G U11C C13G, the “aptazyme ON/OFF ratio” value was 1.03.
On to U7A G9A U10A U11A C13U, for which the “aptazyme ON/OFF ratio” value was 1.21.
As to U7G U8G G9U U11G C12G, the “aptazyme ON/OFF ratio” value was 1.41.
U7C G9C U10A U11A C13G: the “aptazyme ON/OFF ratio” value is 1.05.
In the case of U7G U8A G9C U10A U11G C12A it was 1.02.
On to U7G G9C U11A C12A, for which the “aptazyme ON/OFF ratio” value turned out to be 1.94.
On to U7C U8G G9A U10A U11A C12A C13A, for which the “aptazyme ON/OFF ratio” value is 1.2.
Regarding U7A G9A U11C C12A, the “aptazyme ON/OFF ratio” value is 1.18.
For the variant U7C G9C U10A U11A C12G C13U, the “aptazyme ON/OFF ratio” value came out at 1.07.
In the case of U8A G9A U10C U11G C12G C13U, the “aptazyme ON/OFF ratio” value was determined as 1.17.
The same measure for U7C U8G U10A U11C C12A C13G: 1.05.
U7G U8A G9C C13U: the “aptazyme ON/OFF ratio” value is 1.04.
On to U7A U8G U10G U11A, for which the “aptazyme ON/OFF ratio” value stood at 2.88.
On to U8C G9A U11G C12U C13G, for which the “aptazyme ON/OFF ratio” value came out at 1.29.
Turning to U7C G9U U10C C12A C13G, the “aptazyme ON/OFF ratio” value was found to be 1.09.
For U7G U8A U11A C12A C13G, the “aptazyme ON/OFF ratio” value came to 1.24.
Consider U7C U8A U10G U11C, for which the “aptazyme ON/OFF ratio” value stood at 1.07.
Take U8G G9U U10G U11G: the “aptazyme ON/OFF ratio” value was 1.07.
Take U8G U10G U11G C12G: the “aptazyme ON/OFF ratio” value was 1.07.
In the case of U7G G9U U10G U11A C12G C13A it was 1.19; in that of U7G U8G G9U U10G U11G, 1.81; in that of U7A U8G G9C U10A, 1.24.
As to U8C C12G C13A, the “aptazyme ON/OFF ratio” value worked out at 1.19.
In the case of U7A U8C U10G U11A C12G C13U it was 1.2; in that of U7C U8C G9U U10C C13A, 1.2.
With U7C U8C U10A U11G C12U C13U, the “aptazyme ON/OFF ratio” value came to 1.15.
U7G U8G G9C U10G U11A C12U C13A: the “aptazyme ON/OFF ratio” value is 1.13.
Consider U7G U8A G9C U10G U11G C12G C13U, for which the “aptazyme ON/OFF ratio” value was 1.01.
In the case of U7A U8C G9A U10A C12A C13U it was 1.36; in that of U8A G9A U10A C12G C13A, 1.25; in that of U7G U8G G9A U10C U11C C12U C13U, 1.13.
As to U7A U8C G9C U10A C12U C13A, the “aptazyme ON/OFF ratio” value is 1.05.
Turning to U7C U8C U10G U11G C12A, the “aptazyme ON/OFF ratio” value was 1.26.
In the case of U7C U8G G9U U10G U11C C12G C13A, the “aptazyme ON/OFF ratio” value was 1.03.
For the variant U7G U8A G9C U10C C12G C13G, the “aptazyme ON/OFF ratio” value came out at 1.01.
The same measure for U7C U8A G9U U10G U11A C13A: 1.06; for U8G G9A U10G C12A: 1.44; for U7C G9A U10C C12G: 1.2.
With U8G G9A U11A C12U C13U, the “aptazyme ON/OFF ratio” value was 1.27.
The same measure for U7A U8G G9C U10G C12U C13U: 1.38; for U8A G9C U11G C13G: 1.04.
On to U7A U8C G9U U10C U11C, for which the “aptazyme ON/OFF ratio” value was found to be 0.995.
As for U7C G9A U11G C12A, the “aptazyme ON/OFF ratio” value is 1.08.
For U7A U10A C12U C13G, the “aptazyme ON/OFF ratio” value was found to be 1.14.
U7G G9A U11C C12A: the “aptazyme ON/OFF ratio” value came to 1.34.
In the case of U7C U8G G9C U10A U11C C12A it was 1.19.
Consider U8A G9U U10G C12U, for which the “aptazyme ON/OFF ratio” value amounted to 1.13.
For the variant U7G G9C U10C U11G C12A C13U, the “aptazyme ON/OFF ratio” value worked out at 1.08.
Regarding U7A U8A U10A U11C, the “aptazyme ON/OFF ratio” value is 0.996.
Consider G9A C12G C13A, for which the “aptazyme ON/OFF ratio” value was 1.3.
With U7A U10A U11A C13U, the “aptazyme ON/OFF ratio” value amounted to 1.16.
U7A U8G U10C U11C C13U: the “aptazyme ON/OFF ratio” value is 1.12.
On to U7C U8G G9C, for which the “aptazyme ON/OFF ratio” value came to 1.08.
In the case of U7A U8C U10A U11C C12G C13G it was 1.27; in that of U7C U8A U10C U11G C12G C13U, 1.08; in that of U7A U8G G9U U10C C13A, 1.33.
U7A U8G G9C U10A C12U C13A: the “aptazyme ON/OFF ratio” value came out at 1.31.
As to U7A G9C U10G U11G C12U, the “aptazyme ON/OFF ratio” value worked out at 1.14.
As for U8G C13U, the “aptazyme ON/OFF ratio” value is 1.27.
As for U7G U8G G9U U10C C12G C13G, the “aptazyme ON/OFF ratio” value was determined as 1.1.
On to U7A U8A G9A U10G U11C, for which the “aptazyme ON/OFF ratio” value was 1.04.
The same measure for U7A U8A G9A U10G U11G: 1.07; for U7C U8C G9A U11C C12G C13G: 1.29; for U8C G9U: 2.46.
Regarding U8A G9A U11A C12A, the “aptazyme ON/OFF ratio” value amounted to 1.08.
On to U7G U8C U11C C12U C13U, for which the “aptazyme ON/OFF ratio” value amounted to 1.45.
As to U7G G9A U10G C12U C13U, the “aptazyme ON/OFF ratio” value was found to be 1.1.
